Assay [1] addresses T1, GATA3 neoORF (frameshift mutation of GATA3), common region peptide on HLA-A*02:01 (human). Description: IL-2 release (Meso Scale Discovery) by TCR-transduced Jurkat cells, 10:1 with HEK 293T cells (endogenous HLA-A02:01) loaded overnight with titrated GATA3 peptide; FIG. 44; full-length, on cells.
The target in assay [2] is T1, GATA3 neoORF (frameshift mutation of …). Description: Summary statement of the same IL-2 peptide titration with TCR-transduced Jurkat cells and peptide loaded HEK 293T cells; full-length, on cells.

Where only a bound is given, the exact number is not on record here.

B1: GATA3 specific TCR clonotype 1 (TCR, V domains shown)
Valpha: SQKIEQNSEALNIQEGKTATLTCNYTNYSPAYLQWYRQDPGRGPVFLLLIRENEKEKRKERLKVTFDTTLKQSLFHITASQPADSATYLCALDIYGNNRLAFGKGNQVVVIP
Vbeta: DVKVTQSSRYLVKRTGEKVFLECVQDMDHENMFWYRQDPGLGLRLIYFSYDVKMKEKGDIPEGYSVSREKKERFSLILESASTNQTSMYLCASSLDFVLAGSYSYNEQFFGPGTRLTVL
As for B1, the EC50 of peptide in assay [1] is 37.9 nM; in assay [2], < 40 nM.

Values taken from patent publication US20210275657A1 (published 2021).
